Laboratory results: US20080213281A1, “Butyrylcholinesterase Variants that Alter the Activity of Chemotherapeutic Agents” (priority 2002, published 2008)
“Also recorded” adds a separate entry of the source.

Experiment: HPLC assay of CPT-11 conversion to SN-38 by conditioned media of transiently expressed BChE variants
Assay type: biochemical
Details: for SN-38 formation from CPT-11 (in words): conditioned media, HPLC, compared to mock or wild-type; for Fold improvement in CPT-11 conversion: compared to wild-type butyrylcholinesterase, conditioned media exposed to 20 mM CPT-11 for 72 hours at 37° C., conservative values
Procedure: Butyrylcholinesterase variants were assayed for CPT-11 conversion activity using fluorescent High Performance Liquid Chromotography (HPLC) detection of SN-38 formation as described in Dodds and Rivory, Mol. Pharmacol. 56:1346-1353 (1999), which is incorporated herein by reference. Briefly, conditioned media from transiently expressed BChE variants were exposed to 20 mM CPT-11 for 72 hours at 37° C. and analyzed by HPLC for SN-38 formation (peak at about 4 minutes column retention time).

Molecule	SN-38 formation from CPT-11 (in words)	Fold improvement in CPT-11 conversion	Fold improvement in CPT-11 conversion (listed as F227A/L268S)
F227A (protein, Synthetic butyrylcholinesterase variant; VARIANT (227)..(227): Xaa = Ala) EDDIIIATKNGKVRGMNLTVFGGTVTAFLGIPYAQPPLGRLRFKKPQSLTKWSDIWNATKYANSCCQNIDQSFPGFHGSEMWNPNTDLSEDCLYLNVWIPAPKPKNATVLIWIYGGGFQTGTSSLHVYDGKFLARVERVIVVSMNYRVGALGFLALPGNPEAPGNMGLFDQQLALQWVQKNIAAFGGNPKSVTLFGESAGAASVSLHLLSPGSHSLFTRAILQSGSXNAPWAVTSLYEARNRTLNLAKLTGCSRENETEIIKCLRNKDPQEILLNEAFVVPYGTPLSVNFGPTVDGDFLTDMPDILLELGQFKKTQILVGVNKDEGTAFLVYGAPGFSKDNNSIITRKEFQEGLKIFFPGVSEFGKESILFHYTDWVDDQRPENYREALGDVVGDYNFICPALEFTKKFSEWGNNAFFYYFEHRSSKLPWPEWMGVMHGYEIEFVFGLPLERRDNYTKAEEILSRSIVKRWANFAKYGNPNETQNNSTSWPVFKSTEQKYLTLNTESTRIMTKLRAQQCRFWTSFFPKVLEMTGNIDEAEWEWKAGFHRWNNYMMDWKNQFNDYTSKKESCVGL	produced a small amount of SN-38; also recorded: increased CPT-11 conversion to SN-38	–	–
F227A/L286H (protein, Synthetic butyrylcholinesterase variant; VARIANT (227)..(227): Xaa = Ala; VARIANT (286)..(286): L286H) EDDIIIATKNGKVRGMNLTVFGGTVTAFLGIPYAQPPLGRLRFKKPQSLTKWSDIWNATKYANSCCQNIDQSFPGFHGSEMWNPNTDLSEDCLYLNVWIPAPKPKNATVLIWIYGGGFQTGTSSLHVYDGKFLARVERVIVVSMNYRVGALGFLALPGNPEAPGNMGLFDQQLALQWVQKNIAAFGGNPKSVTLFGESAGAASVSLHLLSPGSHSLFTRAILQSGSXNAPWAVTSLYEARNRTLNLAKLTGCSRENETEIIKCLRNKDPQEILLNEAFVVPYGTPHSVNFGPTVDGDFLTDMPDILLELGQFKKTQILVGVNKDEGTAFLVYGAPGFSKDNNSIITRKEFQEGLKIFFPGVSEFGKESILFHYTDWVDDQRPENYREALGDVVGDYNFICPALEFTKKFSEWGNNAFFYYFEHRSSKLPWPEWMGVMHGYEIEFVFGLPLERRDNYTKAEEILSRSIVKRWANFAKYGNPNETQNNSTSWPVFKSTEQKYLTLNTESTRIMTKLRAQQCRFWTSFFPKVLEMTGNIDEAEWEWKAGFHRWNNYMMDWKNQFNDYTSKKESCVGL	increased CPT-11 conversion to SN-38	>35 fold	–
F227A/L286S (protein, Synthetic butyrylcholinesterase variant; VARIANT (227)..(227): Xaa = Ala; VARIANT (286)..(286): L286S) EDDIIIATKNGKVRGMNLTVFGGTVTAFLGIPYAQPPLGRLRFKKPQSLTKWSDIWNATKYANSCCQNIDQSFPGFHGSEMWNPNTDLSEDCLYLNVWIPAPKPKNATVLIWIYGGGFQTGTSSLHVYDGKFLARVERVIVVSMNYRVGALGFLALPGNPEAPGNMGLFDQQLALQWVQKNIAAFGGNPKSVTLFGESAGAASVSLHLLSPGSHSLFTRAILQSGSXNAPWAVTSLYEARNRTLNLAKLTGCSRENETEIIKCLRNKDPQEILLNEAFVVPYGTPSSVNFGPTVDGDFLTDMPDILLELGQFKKTQILVGVNKDEGTAFLVYGAPGFSKDNNSIITRKEFQEGLKIFFPGVSEFGKESILFHYTDWVDDQRPENYREALGDVVGDYNFICPALEFTKKFSEWGNNAFFYYFEHRSSKLPWPEWMGVMHGYEIEFVFGLPLERRDNYTKAEEILSRSIVKRWANFAKYGNPNETQNNSTSWPVFKSTEQKYLTLNTESTRIMTKLRAQQCRFWTSFFPKVLEMTGNIDEAEWEWKAGFHRWNNYMMDWKNQFNDYTSKKESCVGL	significant conversion; also recorded: increased CPT-11 conversion to SN-38	>50 fold	≥ 50 fold
F227A/L286W (protein, Synthetic butyrylcholinesterase variant; VARIANT (227)..(227): F227A; VARIANT (286)..(286): L286W) EDDIIIATKNGKVRGMNLTVFGGTVTAFLGIPYAQPPLGRLRFKKPQSLTKWSDIWNATKYANSCCQNIDQSFPGFHGSEMWNPNTDLSEDCLYLNVWIPAPKPKNATVLIWIYGGGFQTGTSSLHVYDGKFLARVERVIVVSMNYRVGALGFLALPGNPEAPGNMGLFDQQLALQWVQKNIAAFGGNPKSVTLFGESAGAASVSLHLLSPGSHSLFTRAILQSGSANAPWAVTSLYEARNRTLNLAKLTGCSRENETEIIKCLRNKDPQEILLNEAFVVPYGTPWSVNFGPTVDGDFLTDMPDILLELGQFKKTQILVGVNKDEGTAFLVYGAPGFSKDNNSIITRKEFQEGLKIFFPGVSEFGKESILFHYTDWVDDQRPENYREALGDVVGDYNFICPALEFTKKFSEWGNNAFFYYFEHRSSKLPWPEWMGVMHGYEIEFVFGLPLERRDNYTKAEEILSRSIVKRWANFAKYGNPNETQNNSTSWPVFKSTEQKYLTLNTESTRIMTKLRAQQCRFWTSFFPKVLEMTGNIDEAEWEWKAGFHRWNNYMMDWKNQFNDYTSKKESCVGL	increased CPT-11 conversion to SN-38	>42 fold	–
F227A/S287P (protein, Synthetic butyrylcholinesterase variant; VARIANT (227)..(227): F227A; VARIANT (287)..(287): Xaa = Pro) EDDIIIATKNGKVRGMNLTVFGGTVTAFLGIPYAQPPLGRLRFKKPQSLTKWSDIWNATKYANSCCQNIDQSFPGFHGSEMWNPNTDLSEDCLYLNVWIPAPKPKNATVLIWIYGGGFQTGTSSLHVYDGKFLARVERVIVVSMNYRVGALGFLALPGNPEAPGNMGLFDQQLALQWVQKNIAAFGGNPKSVTLFGESAGAASVSLHLLSPGSHSLFTRAILQSGSANAPWAVTSLYEARNRTLNLAKLTGCSRENETEIIKCLRNKDPQEILLNEAFVVPYGTPLXVNFGPTVDGDFLTDMPDILLELGQFKKTQILVGVNKDEGTAFLVYGAPGFSKDNNSIITRKEFQEGLKIFFPGVSEFGKESILFHYTDWVDDQRPENYREALGDVVGDYNFICPALEFTKKFSEWGNNAFFYYFEHRSSKLPWPEWMGVMHGYEIEFVFGLPLERRDNYTKAEEILSRSIVKRWANFAKYGNPNETQNNSTSWPVFKSTEQKYLTLNTESTRIMTKLRAQQCRFWTSFFPKVLEMTGNIDEAEWEWKAGFHRWNNYMMDWKNQFNDYTSKKESCVGL	increased CPT-11 conversion to SN-38	>6 fold	–
F227A/T284A (protein, Synthetic butyrylcholinesterase variant; VARIANT (227)..(227): Xaa = Ala; VARIANT (284)..(284): Xaa = Ala) EDDIIIATKNGKVRGMNLTVFGGTVTAFLGIPYAQPPLGRLRFKKPQSLTKWSDIWNATKYANSCCQNIDQSFPGFHGSEMWNPNTDLSEDCLYLNVWIPAPKPKNATVLIWIYGGGFQTGTSSLHVYDGKFLARVERVIVVSMNYRVGALGFLALPGNPEAPGNMGLFDQQLALQWVQKNIAAFGGNPKSVTLFGESAGAASVSLHLLSPGSHSLFTRAILQSGSXNAPWAVTSLYEARNRTLNLAKLTGCSRENETEIIKCLRNKDPQEILLNEAFVVPYGXPLSVNFGPTVDGDFLTDMPDILLELGQFKKTQILVGVNKDEGTAFLVYGAPGFSKDNNSIITRKEFQEGLKIFFPGVSEFGKESILFHYTDWVDDQRPENYREALGDVVGDYNFICPALEFTKKFSEWGNNAFFYYFEHRSSKLPWPEWMGVMHGYEIEFVFGLPLERRDNYTKAEEILSRSIVKRWANFAKYGNPNETQNNSTSWPVFKSTEQKYLTLNTESTRIMTKLRAQQCRFWTSFFPKVLEMTGNIDEAEWEWKAGFHRWNNYMMDWKNQFNDYTSKKESCVGL	increased CPT-11 conversion to SN-38	>7 fold	–
F227A/L286Q (protein, Synthetic butyrylcholinesterase variant; VARIANT (227)..(227): Xaa = Ala; VARIANT (286)..(286): L286Q) EDDIIIATKNGKVRGMNLTVFGGTVTAFLGIPYAQPPLGRLRFKKPQSLTKWSDIWNATKYANSCCQNIDQSFPGFHGSEMWNPNTDLSEDCLYLNVWIPAPKPKNATVLIWIYGGGFQTGTSSLHVYDGKFLARVERVIVVSMNYRVGALGFLALPGNPEAPGNMGLFDQQLALQWVQKNIAAFGGNPKSVTLFGESAGAASVSLHLLSPGSHSLFTRAILQSGSXNAPWAVTSLYEARNRTLNLAKLTGCSRENETEIIKCLRNKDPQEILLNEAFVVPYGTPQSVNFGPTVDGDFLTDMPDILLELGQFKKTQILVGVNKDEGTAFLVYGAPGFSKDNNSIITRKEFQEGLKIFFPGVSEFGKESILFHYTDWVDDQRPENYREALGDVVGDYNFICPALEFTKKFSEWGNNAFFYYFEHRSSKLPWPEWMGVMHGYEIEFVFGLPLERRDNYTKAEEILSRSIVKRWANFAKYGNPNETQNNSTSWPVFKSTEQKYLTLNTESTRIMTKLRAQQCRFWTSFFPKVLEMTGNIDEAEWEWKAGFHRWNNYMMDWKNQFNDYTSKKESCVGL	increased CPT-11 conversion to SN-38	>10 fold	–
